This is an account of results in patent CN113683697A (SHANGHAI XIANGYAO BIOTECHNOLOGY CO LTD, dated 2021).

Assay [1] addresses T1, B7-H3 (4Ig-B7-H3) endogenously expressed on MDA-MB-231 cells (UniProt Q5ZPR3 29-534, limits assumed).
T1 construct: whole, on cells; also called 细胞表面的B7-H3抗原
T1 sequence (looked up): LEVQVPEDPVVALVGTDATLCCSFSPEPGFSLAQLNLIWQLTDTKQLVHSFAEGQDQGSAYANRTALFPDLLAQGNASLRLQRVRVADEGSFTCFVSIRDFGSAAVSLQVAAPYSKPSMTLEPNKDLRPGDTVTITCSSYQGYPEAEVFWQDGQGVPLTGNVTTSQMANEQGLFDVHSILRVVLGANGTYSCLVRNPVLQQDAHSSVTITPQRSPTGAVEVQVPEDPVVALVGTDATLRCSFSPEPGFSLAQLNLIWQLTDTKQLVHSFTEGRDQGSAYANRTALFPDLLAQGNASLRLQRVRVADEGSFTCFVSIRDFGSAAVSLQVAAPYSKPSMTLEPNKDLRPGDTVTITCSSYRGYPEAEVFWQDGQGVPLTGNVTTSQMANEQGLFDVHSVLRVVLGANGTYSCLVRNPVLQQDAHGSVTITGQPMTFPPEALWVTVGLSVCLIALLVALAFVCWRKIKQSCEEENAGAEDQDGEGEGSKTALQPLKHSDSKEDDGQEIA
Put plainly: FACS, MDA-MB-231 cells. (A flow cytometer gives signals particle by particle.)

The target in assay [2] is T2, 人B7-H3变体1(4Ig-B7-H3) on stable cells 293-h4Ig-B7-H3-copGFP (human, UniProt Q5ZPR3 29-534).
T2 construct: Full-length CDS cloned in pCDH-EF1-T2A-copGFP and expressed on stably transduced cells; residues left by T2A cleavage not described
T2 sequence: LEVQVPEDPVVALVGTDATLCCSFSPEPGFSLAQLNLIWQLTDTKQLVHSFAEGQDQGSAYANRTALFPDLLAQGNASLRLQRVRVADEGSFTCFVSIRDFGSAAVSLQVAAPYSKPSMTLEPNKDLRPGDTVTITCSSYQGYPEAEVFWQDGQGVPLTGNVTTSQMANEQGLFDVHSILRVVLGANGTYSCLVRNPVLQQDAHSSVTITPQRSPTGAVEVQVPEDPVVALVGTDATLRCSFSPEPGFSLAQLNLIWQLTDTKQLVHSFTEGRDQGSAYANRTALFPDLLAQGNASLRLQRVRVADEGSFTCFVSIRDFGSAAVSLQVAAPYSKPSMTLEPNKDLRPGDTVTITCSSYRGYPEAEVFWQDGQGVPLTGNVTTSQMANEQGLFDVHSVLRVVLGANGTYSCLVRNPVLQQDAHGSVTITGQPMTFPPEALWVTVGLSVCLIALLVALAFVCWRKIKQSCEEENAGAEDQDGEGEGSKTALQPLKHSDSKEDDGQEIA
The assay can be described thus: FACS, 293-h4Ig-B7-H3-copGFP stable cells.

B1: h27B4-H4-L3 (antibody, human IgG1, kappa, V domains shown)
VH: EVQLVQSGAEVKKPGESLKISCKASGYTFTTYWIGWVRQMPGKGLEWMGIIYPGDGGSRYSPSFQGQVTISADKSISTAYLQWSSLKASDTAMYYCARGGNYISFPMYYWGQGTLVTVSS
VL: EIVMTQSPATLSVSPGERATLSCKASRGVSTALAWYQQKPGQAPRLLIYWASTRATGIPARFSGSGSGTEFTLTISSLQSEDFAVYYCQQHYDTPYTFGQGTKLEIKR
notes: Whole IgG, humanized; optimized hIgG1 (L235V, F243L, R292P, Y300L, P396L) and human kappa; also called zw.M0883B9.27B4Z02; 27B4Z02分子
In the case of B1, the binding result in assay [1] and in assay [2] was “binds” throughout.

B2: scFv-27B4-H5-L3 (scFv)
scFv: QVQLVESGGGVVQPGRSLRLSCKASGYTFTTYWMHWVRQAPGKGLEWVAVIYPGDGGSYYTDSVKGRFTISRDNSKNTLYLQMNSLRAEDTAVYYCARGGNYISFPMYYWGQGTLVTVSSGGGGSGGGGSGGGGSGGGGASEIVMTQSPATLSVSPGERATLSCKASRGVSTALAWYQQKPGQAPRLLIYWASTRATGIPARFSGSGSGTEFTLTISSLQSEDFAVYYCQQHYDTPYTFGQGTKLEIK
notes: VH-linker-VL in phage display vector pXY, expressed in TG1, purified on a nickel column
With B2, the binding result in assay [1] and in assay [2] was “binds” each time.

B3: scFv-27B4-H5-L5 (scFv)
scFv: QVQLVESGGGVVQPGRSLRLSCKASGYTFTTYWMHWVRQAPGKGLEWVAVIYPGDGGSYYTDSVKGRFTISRDNSKNTLYLQMNSLRAEDTAVYYCARGGNYISFPMYYWGQGTLVTVSSGGGGSGGGGSGGGGSGGGGASDIVMTQTPLSLSVTPGQPASISCKASRGVSTALYWYLQKPGQPPQLLIYWASNRFSGVPDRFSGSGSGTDFTLKISRVEAEDVGVYYCQQHYDTPYTFGQGTKLEIK
notes: as for B2
With B3, the binding result in assay [1] and in assay [2] was “binds” throughout.

B4: scFv-27B4-H5-L1 (scFv)
scFv: QVQLVESGGGVVQPGRSLRLSCKASGYTFTTYWMHWVRQAPGKGLEWVAVIYPGDGGSYYTDSVKGRFTISRDNSKNTLYLQMNSLRAEDTAVYYCARGGNYISFPMYYWGQGTLVTVSSGGGGSGGGGSGGGGSGGGGASDIQMTQSPSSLSASMGDRVTITCKASRGVSTALNWYQQKPGKAPKLLIYWASSLQSGVPSRFSGSGSGTDFTLTISSLQPEDFATYYCQQHYDTPYTFGQGTKLEIK
notes: as for B2
Take B4: the binding result in assay [1] and in assay [2] was “binds” each time.

B5: scFv-27B4-H5-L2 (scFv)
scFv: QVQLVESGGGVVQPGRSLRLSCKASGYTFTTYWMHWVRQAPGKGLEWVAVIYPGDGGSYYTDSVKGRFTISRDNSKNTLYLQMNSLRAEDTAVYYCARGGNYISFPMYYWGQGTLVTVSSGGGGSGGGGSGGGGSGGGGASVIWMTQSPSLLSASTGDRVTISCKASRGVSTALAWYQQKPGKAPELLIYWASTLQSGVPSRFSGSGSGTDFTLTISCLQSEDFATYYCQQHYDTPYTFGQGTKLEIK
notes: as for B2
Take B5: the binding result in assay [1] and in assay [2] was “binds” in each case.

B6: scFv-27B4-H5-L4 (scFv)
scFv: QVQLVESGGGVVQPGRSLRLSCKASGYTFTTYWMHWVRQAPGKGLEWVAVIYPGDGGSYYTDSVKGRFTISRDNSKNTLYLQMNSLRAEDTAVYYCARGGNYISFPMYYWGQGTLVTVSSGGGGSGGGGSGGGGSGGGGASEIVLTQSPDFQSVTPKEKVTITCKASRGVSTALHWYQQKPDQSPKLLIKWASQSFSGVPSRFSGSGSGTDFTLTINSLEAEDAATYYCQQHYDTPYTFGQGTKLEIK
notes: as for B2
Regarding B6, the binding result in assay [1] and in assay [2] was “binds” throughout.

B7: h27B4-H2-L2 (antibody, human IgG1, kappa, V domains shown)
VH: QVQLVQSGAEVKKPGSSVKVSCKASGYTFTTYWISWVRQAPGQGLEWMGGIYPGDGGSNYAQKFQGRVTITADESTSTAYMELSSLRSEDTAVYYCARGGNYISFPMYYWGQGTLVTVSS
VL: VIWMTQSPSLLSASTGDRVTISCKASRGVSTALAWYQQKPGKAPELLIYWASTLQSGVPSRFSGSGSGTDFTLTISCLQSEDFATYYCQQHYDTPYTFGQGTKLEIKR
notes: Whole IgG, humanized; optimized hIgG1 (L235V, F243L, R292P, Y300L, P396L) and human kappa; also called zw.M0883B9.27B4Z01
Consider B7, for which the binding result in assay [1] and in assay [2] was “binds” throughout.
